The values below come from IntAct's records for PubMed 25910212.

The chains are these.
B1: U4/U6 small nuclear ribonucleoprotein Prp3 (Homo sapiens), O43395 (parent)
chain: MALSKRELDELKPWIEKTVKRVLGFSEPTVVTAALNCVGKGMDKKKAADHLKPFLDDSTLRFVDKLFEAVEEGRSSRHSKSSSDRSRKRELKEVFGDDSEISKESSGVKKRRIPRFEEVEEEPEVIPGPPSESPGMLTKLQIKQMMEAATRQIEERKKQLSFISPPTPQPKTPSSSQPERLPIGNTIQPSQAATFMNDAIEKARKAAELQARIQAQLALKPGLIGNANMVGLANLHAMGIAPPKVELKDQTKPTPLILDEQGRTVDATGKEIELTHRMPTLKANIRAVKREQFKQQLKEKPSEDMESNTFFDPRVSIAPSQRQRRTFKFHDKGKFEKIAQRLRTKAQLEKLQAEISQAARKTGIHTSTRLALIAPKKELKEGDIPEIEWWDSYIIPNGFDLTEENPKREDYFGITNLVEHPAQLNPPVDNDTPVTLGVYLTKKEQKKLRRQTRREAQKELQEKVRLGLMPPPEPKVRISNLMRVLGTEAVQDPTKVEAHVRAQMAKRQKAHEEANAARKLTAEQRKVKKIKKLKEDISQGVHISVYRVRNLSNPAKKFKIEANAGQLYLTGVVVLHKDVNVVVVEGGPKAQKKFKRLMLHRIKWDEQTSNTKGDDDEESDEEAVKKTNKCVLVWEGTAKDRSFGEMKFKQCPTENMAREHFKKHGAEHYWDLALSESVLESTD
partner: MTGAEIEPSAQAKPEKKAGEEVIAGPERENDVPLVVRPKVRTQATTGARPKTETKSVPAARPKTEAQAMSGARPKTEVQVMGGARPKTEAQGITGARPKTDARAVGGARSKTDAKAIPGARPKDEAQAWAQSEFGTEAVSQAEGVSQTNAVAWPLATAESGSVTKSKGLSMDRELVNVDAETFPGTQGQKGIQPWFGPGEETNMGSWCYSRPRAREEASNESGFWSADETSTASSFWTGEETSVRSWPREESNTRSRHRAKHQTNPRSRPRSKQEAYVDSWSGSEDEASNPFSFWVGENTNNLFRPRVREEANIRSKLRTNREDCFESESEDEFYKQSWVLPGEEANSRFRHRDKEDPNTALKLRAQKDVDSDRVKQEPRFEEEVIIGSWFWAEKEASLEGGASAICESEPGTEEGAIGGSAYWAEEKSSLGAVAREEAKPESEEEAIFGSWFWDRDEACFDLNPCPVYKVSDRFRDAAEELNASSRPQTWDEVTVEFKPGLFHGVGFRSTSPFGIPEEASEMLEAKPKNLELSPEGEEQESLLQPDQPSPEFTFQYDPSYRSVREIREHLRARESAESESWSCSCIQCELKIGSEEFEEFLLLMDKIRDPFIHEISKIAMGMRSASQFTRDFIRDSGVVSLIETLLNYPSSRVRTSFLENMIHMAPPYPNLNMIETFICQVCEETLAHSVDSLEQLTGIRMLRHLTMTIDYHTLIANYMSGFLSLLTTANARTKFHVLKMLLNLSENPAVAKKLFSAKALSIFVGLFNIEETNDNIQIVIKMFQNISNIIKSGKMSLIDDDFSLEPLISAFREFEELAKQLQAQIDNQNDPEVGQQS
B2: Adenosylhomocysteinase (Homo sapiens), P23526 (parent)
chain: MSDKLPYKVADIGLAAWGRKALDIAENEMPGLMRMRERYSASKPLKGARIAGCLHMTVETAVLIETLVTLGAEVQWSSCNIFSTQDHAAAAIAKAGIPVYAWKGETDEEYLWCIEQTLYFKDGPLNMILDDGGDLTNLIHTKYPQLLPGIRGISEETTTGVHNLYKMMANGILKVPAINVNDSVTKSKFDNLYGCRESLIDGIKRATDVMIAGKVAVVAGYGDVGKGCAQALRGFGARVIITEIDPINALQAAMEGYEVTTMDEACQEGNIFVTTTGCIDIILGRHFEQMKDDAIVCNIGHFDVEIDVKWLNENAVEKVNIKPQVDRYRLKNGRRIILLAEGRLVNLGCAMGHPSFVMSNSFTNQVMAQIELWTHPDKYPVGVHFLPKKLDEAVAEAHLGKLNVKLTKLTEKQAQYLGMSCDGPFKPDHYRY
partner: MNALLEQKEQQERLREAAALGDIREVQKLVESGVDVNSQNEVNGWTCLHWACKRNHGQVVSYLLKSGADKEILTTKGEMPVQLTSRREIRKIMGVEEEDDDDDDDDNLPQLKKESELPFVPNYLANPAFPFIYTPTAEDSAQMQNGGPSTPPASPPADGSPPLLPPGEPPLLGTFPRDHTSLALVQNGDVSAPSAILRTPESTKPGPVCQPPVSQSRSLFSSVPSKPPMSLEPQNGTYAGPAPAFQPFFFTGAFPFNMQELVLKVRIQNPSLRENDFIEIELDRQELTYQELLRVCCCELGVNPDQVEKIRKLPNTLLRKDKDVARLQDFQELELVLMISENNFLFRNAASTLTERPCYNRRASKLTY
B3: SH2 domain-containing protein 1A (Homo sapiens), O60880 (parent)
chain: MDAVAVYHGKISRETGEKLLLATGLDGSYLLRDSESVPGVYCLCVLYHGYIYTYRVSQTETGSWSAETAPGVHKRYFRKIKNLISAFQKPDQGIVIPLQYPVEKKSSARSTQGTTGIREDPDVCLKAP
partner: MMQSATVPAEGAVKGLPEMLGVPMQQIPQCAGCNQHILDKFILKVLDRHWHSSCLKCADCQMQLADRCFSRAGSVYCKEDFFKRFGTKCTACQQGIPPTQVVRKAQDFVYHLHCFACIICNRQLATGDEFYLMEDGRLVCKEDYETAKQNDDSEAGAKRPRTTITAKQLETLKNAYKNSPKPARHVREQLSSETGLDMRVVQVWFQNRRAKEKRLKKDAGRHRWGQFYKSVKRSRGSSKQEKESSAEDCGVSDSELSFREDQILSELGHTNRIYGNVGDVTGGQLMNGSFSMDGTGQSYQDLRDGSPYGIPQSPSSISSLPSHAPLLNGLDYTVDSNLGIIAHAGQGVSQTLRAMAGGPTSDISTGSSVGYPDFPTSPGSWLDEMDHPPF
B4: Proton-coupled zinc antiporter SLC30A8 (Homo sapiens), Q8IWU4 (parent)
chain: MEFLERTYLVNDKAAKMYAFTLESVELQQKPVNKDQCPRERPEELESGGMYHCHSGSKPTEKGANEYAYAKWKLCSASAICFIFMIAEVVGGHIAGSLAVVTDAAHLLIDLTSFLLSLFSLWLSSKPPSKRLTFGWHRAEILGALLSILCIWVVTGVLVYLACERLLYPDYQIQATVMIIVSSCAVAANIVLTVVLHQRCLGHNHKEVQANASVRAAFVHALGDLFQSISVLISALIIYFKPEYKIADPICTFIFSILVLASTITILKDFSILLMEGVPKSLNYSGVKELILAVDGVLSVHSLHIWSLTMNQVILSAHVATAASRDSQVVRREIAKALSKSFTMHSLTIQMESPVDQDPDCLFCEDPCD
partner: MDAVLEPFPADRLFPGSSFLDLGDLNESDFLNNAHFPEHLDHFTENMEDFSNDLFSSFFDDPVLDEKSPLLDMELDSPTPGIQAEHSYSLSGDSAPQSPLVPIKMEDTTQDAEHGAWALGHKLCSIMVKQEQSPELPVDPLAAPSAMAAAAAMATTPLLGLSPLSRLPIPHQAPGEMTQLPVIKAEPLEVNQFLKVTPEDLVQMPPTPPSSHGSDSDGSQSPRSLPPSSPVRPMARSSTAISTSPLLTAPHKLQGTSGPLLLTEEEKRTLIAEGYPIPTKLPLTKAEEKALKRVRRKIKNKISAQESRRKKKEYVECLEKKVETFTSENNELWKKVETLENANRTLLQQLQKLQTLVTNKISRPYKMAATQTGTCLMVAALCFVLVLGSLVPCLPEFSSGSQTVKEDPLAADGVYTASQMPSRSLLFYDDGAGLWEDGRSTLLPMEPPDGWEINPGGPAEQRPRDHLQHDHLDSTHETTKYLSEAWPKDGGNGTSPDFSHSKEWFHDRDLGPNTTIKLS

The variants in the first assay derive from B1. The note with it: with gasp2_human GPRASP2, Q96D09.
For A489D, the “effect of a mutation on the interaction” value is on record as “with no effect”. In the case of P493S, the “effect of a mutation on the interaction” value is “with no effect”. Same read-out and setting: as for T494M, the entry is “with no effect”.

A further assay covers variants of B2. The note with it: with anr40_human ANKRD40, Q6AI12.
With D86G, the “effect of a mutation on the interaction” value is “with no effect”. On the same count and under the same terms, as for A89V, the entry is “disrupting interaction strength”; as for Y143C, “with no effect”.

The variants in the next assay derive from B3. The note with it: with lhx4_human LHX4, Q969G2.
As to G93D, the “effect of a mutation on the interaction” value is given as “with no effect”.

With P101L, the “effect of a mutation on the interaction” value is given as “with no effect”. Regarding R32T, the “effect of a mutation on the interaction” value is on record as “with no effect”.

In a further assay the parent is B4. The following applies: with cr3l1_human CREB3L1, Q96BA8.
Regarding R325W, the “effect of a mutation on the interaction” value is given as “disrupting interaction strength”. Still for that read-out and setting: as for R325Q, the entry is “with no effect”.
